Reference: PMC6549140, “ATP hydrolysis by KaiC promotes its KaiA binding in the cyanobacterial circadian clock system” (Life Science Alliance, 2019)
Several values for one entry are separate records, joined by “and”; a condition that tells them apart may be missing. Identical values can stand only once. Blank lines part the entries; values can stand above or below the molecule they belong to.

What was measured:
[1] = molecular target: T1, CI hexamer (hexameric CI domain M1–S253) (Thermosynechococcus vestitus, UniProt Q79V60); assay: native mass spectrometry after trypsin digestion; type: binding; details: KaiCAA incubated with 1 mM ATP, 37°C, 5 h; 150 mM ammonium acetate; 0.02 mg/ml trypsin up to 60 min
T1 construct: gene kaiC; CI domain M1-S253 made by trypsin digestion of KaiCAA (the S431A/T432A sites lie outside), hexamer

[2] = molecular target: CI domain (M1–S253) of KaiCAA, tryptic fragment, hexamer (T. elongatus BP-1); assay: native MS; KaiCAA hexamer (1 mM ATP, 5 h, 37°C) exchanged into 150 mM ammonium acetate and digested with 0.02 mg/ml trypsin for 0, 30 and 60 min, analysed directly
[3] = molecular target: KaiCAA (KaiC with Ser431 and Thr432 both substituted with alanine), hexamer (T. elongatus BP-1) (UniProt Q79V60); assay: native MS; KaiC mutant (20 uM) alone, hexamerised with 1 mM AMPPNP, 5 h at 37°C, exchanged into 150 mM ammonium acetate pH 6.8, nanoflow ESI
[4] = molecular target: KaiCAA (KaiC with Ser431 and Thr432 both substituted with alanine), hexamer (T. elongatus BP-1) (UniProt Q79V60); assay: native MS; KaiC mutant (20 uM) alone, hexamerised with 1 mM ATP, 5 h at 37°C, exchanged into 150 mM ammonium acetate pH 6.8, nanoflow ESI
[5] = molecular target: KaiCDD (KaiC with Ser431 and Thr432 both substituted with aspartate), hexamer (T. elongatus BP-1) (UniProt Q79V60); assay: native MS; KaiC mutant (20 uM) alone, hexamerised with 1 mM AMPPNP, 5 h at 37°C, exchanged into 150 mM ammonium acetate pH 6.8, nanoflow ESI
[6] = molecular target: KaiCDD (KaiC with Ser431 and Thr432 both substituted with aspartate), hexamer (T. elongatus BP-1) (UniProt Q79V60); assay: native MS; KaiC mutant (20 uM) alone, hexamerised with 1 mM ATP, 5 h at 37°C, exchanged into 150 mM ammonium acetate pH 6.8, nanoflow ESI
[7] = molecular target: KaiC_(AA/E77Q) (KaiCAA with the catalytic glutamate Glu77 of the CI ATPase domain substituted by glutamine), hexamer (T. elongatus BP-1) (UniProt Q79V60); assay: as above
[8] = molecular target: KaiCAA (KaiC with Ser431 and Thr432 both substituted with alanine), hexamer (T. elongatus BP-1) (UniProt Q79V60); assay: native MS; 6:1, 6:3, 6:6 and 6:9 mixtures of KaiCAA and KaiA (up to excess KaiA), 1 mM ATP, 5 h at 37°C, nanoflow ESI
[9] = molecular target: KaiCAA (KaiC with Ser431 and Thr432 both substituted with alanine), hexamer (T. elongatus BP-1) (UniProt Q79V60); assay: native MS; 6:3 mixture of KaiC mutant (20 uM) and KaiA (10 uM), 1 mM AMPPNP, 5 h at 37°C, 150 mM ammonium acetate pH 6.8, nanoflow ESI
[10] = molecular target: KaiCDD (KaiC with Ser431 and Thr432 both substituted with aspartate), hexamer (T. elongatus BP-1) (UniProt Q79V60); assay: as above
[11] = molecular target: KaiCAA (KaiC with Ser431 and Thr432 both substituted with alanine), hexamer (T. elongatus BP-1) (UniProt Q79V60); assay: native MS; 6:3 mixture of KaiC mutant (20 uM) and KaiA (10 uM), 1 mM ATP, 5 h at 37°C, 150 mM ammonium acetate pH 6.8, nanoflow ESI
[12] = molecular target: KaiCDD (KaiC with Ser431 and Thr432 both substituted with aspartate), hexamer (T. elongatus BP-1) (UniProt Q79V60); assay: as above
[13] = molecular target: KaiC_(AA/E77Q) (KaiCAA with the catalytic glutamate Glu77 of the CI ATPase domain substituted by glutamine), hexamer (T. elongatus BP-1) (UniProt Q79V60); assay: as above

T1 sequence (Q79V60 1-253): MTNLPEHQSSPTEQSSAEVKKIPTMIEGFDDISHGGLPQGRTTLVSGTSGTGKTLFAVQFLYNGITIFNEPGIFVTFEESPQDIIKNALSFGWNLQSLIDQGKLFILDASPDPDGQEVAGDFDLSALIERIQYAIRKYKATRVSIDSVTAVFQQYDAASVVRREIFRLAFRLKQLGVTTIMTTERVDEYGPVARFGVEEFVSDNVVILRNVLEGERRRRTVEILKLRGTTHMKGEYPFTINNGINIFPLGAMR

Molecule: Nc1ncnc2c1ncn2[C@@H]1O[C@H](COP(=O)(O)OP(=O)(O)OP(=O)(O)O)[C@@H](O)[C@H]1O [ATP]
- native mass spectrometry after trypsin digestion [1]: the hexameric CI domain (M1–S253) containing six ATP molecules

- stoichiometry N (subunits in the oligomer) [2]: 6
Molecule: CI domain (M1–S253) of KaiCAA, tryptic fragment, hexamer (domain or fragment)

- stoichiometry N (subunits in the oligomer) [3]: 6
- stoichiometry N (subunits in the oligomer) [4]: 6
Molecule: KaiCAA (KaiC with Ser431 and Thr432 both substituted with alanine), hexamer (from UniProt Q79V60 1-518) (natural protein)

- stoichiometry N (subunits in the oligomer) [5]: 6
- stoichiometry N (subunits in the oligomer) [6]: 6
Molecule: KaiCDD (KaiC with Ser431 and Thr432 both substituted with aspartate), hexamer (from UniProt Q79V60 1-518) (natural protein)

- stoichiometry N (subunits in the oligomer) [7]: 6
Molecule: KaiC_(AA/E77Q) (KaiCAA with the catalytic glutamate Glu77 of the CI ATPase domain substituted by glutamine), hexamer (from UniProt Q79V60 1-518) (natural protein)

- stoichiometry N (KaiA molecules per KaiC hexamer) [8]: 2 and 4
- stoichiometry N (KaiA molecules per KaiC hexamer) [9]: 2
- stoichiometry N (KaiA molecules per KaiC hexamer) [10]: 2
- stoichiometry N (KaiA molecules per KaiC hexamer) [11]: 2
- stoichiometry N (KaiA molecules per KaiC hexamer) [12]: 2
- stoichiometry N (KaiA molecules per KaiC hexamer) [13]: 2
B1: KaiA (natural protein)
chain: MAQSTALTICGLVYSPAIGQELVRLHTSDIDELVYFSSEREFCNYLEARRNSIACLILEWGEGTPQIITYLHHSATLLPAILIFPAAPAPPPAGPHYHIAEVILTTDQLDQLNRQIEEAITGFVKLCPGCAVPPHVLFRLPALKESSNVDPQHRLSQKLKERLGYLGVYYKRDTAFFFRRMSPADKRKLLDELRSIYRTIVLEYFNTDAKVNERIDEFVSKAFFADISVSQVLEIHVELMDTFSKQLKLEGRSEDILLDYRLTLIDVIAHLCEMYRRSIPREV
